Series [1] concerns the target mouse C3b/iC3b deposited from mouse serum on LPS, P01027.

Sequence of mouse C3b/iC3b deposited from mouse serum on LPS, P01027 (P01027 25-1663): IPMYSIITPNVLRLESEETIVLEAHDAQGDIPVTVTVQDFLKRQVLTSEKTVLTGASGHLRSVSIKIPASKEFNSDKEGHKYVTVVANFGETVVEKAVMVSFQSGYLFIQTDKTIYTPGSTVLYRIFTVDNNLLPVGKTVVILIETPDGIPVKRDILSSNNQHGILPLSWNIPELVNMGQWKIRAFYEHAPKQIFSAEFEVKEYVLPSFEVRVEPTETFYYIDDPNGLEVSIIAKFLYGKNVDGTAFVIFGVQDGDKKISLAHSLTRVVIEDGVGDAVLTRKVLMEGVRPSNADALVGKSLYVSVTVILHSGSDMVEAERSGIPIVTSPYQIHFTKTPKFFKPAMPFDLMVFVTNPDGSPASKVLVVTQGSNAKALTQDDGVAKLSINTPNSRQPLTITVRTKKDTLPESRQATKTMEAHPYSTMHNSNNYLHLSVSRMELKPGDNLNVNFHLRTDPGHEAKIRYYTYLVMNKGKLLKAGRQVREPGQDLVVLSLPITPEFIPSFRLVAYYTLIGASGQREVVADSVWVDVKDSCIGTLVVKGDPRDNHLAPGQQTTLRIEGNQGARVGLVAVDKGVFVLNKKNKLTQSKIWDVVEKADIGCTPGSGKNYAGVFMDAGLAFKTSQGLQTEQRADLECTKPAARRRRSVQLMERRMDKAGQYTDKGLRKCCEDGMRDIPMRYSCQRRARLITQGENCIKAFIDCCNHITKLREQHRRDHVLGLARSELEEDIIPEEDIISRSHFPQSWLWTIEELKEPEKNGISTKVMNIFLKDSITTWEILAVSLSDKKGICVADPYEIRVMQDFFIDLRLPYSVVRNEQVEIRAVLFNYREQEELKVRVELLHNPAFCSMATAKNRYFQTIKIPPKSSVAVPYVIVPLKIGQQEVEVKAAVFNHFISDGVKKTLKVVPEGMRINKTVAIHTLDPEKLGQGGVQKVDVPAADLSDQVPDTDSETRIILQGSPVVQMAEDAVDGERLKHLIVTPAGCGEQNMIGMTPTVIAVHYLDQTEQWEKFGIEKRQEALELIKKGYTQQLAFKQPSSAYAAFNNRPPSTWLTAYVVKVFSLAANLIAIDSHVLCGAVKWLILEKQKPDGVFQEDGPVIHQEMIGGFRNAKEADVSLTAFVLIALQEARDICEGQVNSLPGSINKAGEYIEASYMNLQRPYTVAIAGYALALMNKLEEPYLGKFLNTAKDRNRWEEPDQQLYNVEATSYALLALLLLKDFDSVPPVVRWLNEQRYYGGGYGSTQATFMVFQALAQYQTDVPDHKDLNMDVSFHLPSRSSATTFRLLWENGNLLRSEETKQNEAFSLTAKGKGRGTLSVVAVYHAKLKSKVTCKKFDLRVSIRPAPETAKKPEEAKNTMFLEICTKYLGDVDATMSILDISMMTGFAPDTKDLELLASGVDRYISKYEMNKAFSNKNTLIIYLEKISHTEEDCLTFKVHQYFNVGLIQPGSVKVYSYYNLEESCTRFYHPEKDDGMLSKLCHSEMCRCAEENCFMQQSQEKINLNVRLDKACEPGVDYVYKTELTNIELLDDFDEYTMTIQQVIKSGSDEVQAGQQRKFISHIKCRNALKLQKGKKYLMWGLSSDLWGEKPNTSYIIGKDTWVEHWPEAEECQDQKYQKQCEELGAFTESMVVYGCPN
Sequence of human C3b, P01024 (P01024 whole entry, looked up): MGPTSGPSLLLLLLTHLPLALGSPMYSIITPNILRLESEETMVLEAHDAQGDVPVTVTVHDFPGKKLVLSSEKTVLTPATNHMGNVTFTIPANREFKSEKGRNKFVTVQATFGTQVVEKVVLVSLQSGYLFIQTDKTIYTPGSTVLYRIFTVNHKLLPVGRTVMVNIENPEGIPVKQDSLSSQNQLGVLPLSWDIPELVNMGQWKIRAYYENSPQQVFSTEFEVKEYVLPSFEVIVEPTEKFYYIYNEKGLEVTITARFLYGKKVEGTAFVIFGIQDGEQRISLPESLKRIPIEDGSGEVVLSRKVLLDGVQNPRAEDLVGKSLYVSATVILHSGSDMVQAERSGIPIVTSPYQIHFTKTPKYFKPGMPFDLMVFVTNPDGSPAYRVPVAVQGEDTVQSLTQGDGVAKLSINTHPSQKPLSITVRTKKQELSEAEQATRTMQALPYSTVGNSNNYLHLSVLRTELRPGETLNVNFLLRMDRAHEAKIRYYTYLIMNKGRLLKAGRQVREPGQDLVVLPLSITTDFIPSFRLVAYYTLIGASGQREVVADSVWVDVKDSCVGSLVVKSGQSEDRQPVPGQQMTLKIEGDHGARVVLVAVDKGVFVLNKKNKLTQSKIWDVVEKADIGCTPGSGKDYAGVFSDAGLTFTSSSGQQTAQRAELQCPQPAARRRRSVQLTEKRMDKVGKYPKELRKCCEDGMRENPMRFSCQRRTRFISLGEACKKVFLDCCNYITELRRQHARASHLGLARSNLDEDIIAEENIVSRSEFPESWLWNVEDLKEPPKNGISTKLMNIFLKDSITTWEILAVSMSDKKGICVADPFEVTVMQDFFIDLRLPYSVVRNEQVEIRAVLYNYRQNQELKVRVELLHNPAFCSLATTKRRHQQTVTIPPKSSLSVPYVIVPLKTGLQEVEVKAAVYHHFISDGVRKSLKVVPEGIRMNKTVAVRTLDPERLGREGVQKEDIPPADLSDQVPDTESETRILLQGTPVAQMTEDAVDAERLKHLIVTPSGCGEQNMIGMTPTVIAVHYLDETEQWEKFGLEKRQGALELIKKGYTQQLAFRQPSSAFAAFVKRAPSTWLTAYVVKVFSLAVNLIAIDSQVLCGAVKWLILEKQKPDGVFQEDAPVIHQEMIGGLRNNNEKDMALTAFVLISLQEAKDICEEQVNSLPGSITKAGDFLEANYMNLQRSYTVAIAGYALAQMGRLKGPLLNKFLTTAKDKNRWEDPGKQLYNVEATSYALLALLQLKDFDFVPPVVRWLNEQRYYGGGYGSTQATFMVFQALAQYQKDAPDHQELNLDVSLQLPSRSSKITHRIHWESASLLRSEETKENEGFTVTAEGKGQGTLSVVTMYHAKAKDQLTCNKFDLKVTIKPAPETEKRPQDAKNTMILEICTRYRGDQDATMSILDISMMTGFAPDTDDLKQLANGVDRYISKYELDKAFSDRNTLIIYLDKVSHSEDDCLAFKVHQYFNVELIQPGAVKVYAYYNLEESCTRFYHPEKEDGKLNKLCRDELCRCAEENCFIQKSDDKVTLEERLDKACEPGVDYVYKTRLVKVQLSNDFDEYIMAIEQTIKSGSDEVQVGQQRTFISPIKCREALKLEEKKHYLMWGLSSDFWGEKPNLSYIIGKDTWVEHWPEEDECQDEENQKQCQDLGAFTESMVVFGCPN

B1: mouse Factor I in mouse serum (protein)
chain: RSPSASDLPQEELVDQKCLLQKYTHRSCNKVFCQPWQRCIEGTCICKLPYQCPRAGTPVCAMNGRSYPTYCHQKSFECLHPEIKFSHNGTCAAEGKFNVSLIYGRTKTEGLVQVKLVDQDERMFICKNSWSMAEANVACVDLGFPLGVRDIQGSFNISGNLHINDTECLHVHCRGVETSLAECAFTKRRTELSNGLAGVVCYKQDADFPTSLSFQCVNGKHIPQEKACNGVNDCGDQSDELCCKGCRGNASLCKSGVCIPDQYKCNGEVDCITGEDESRCEEDRQQNIPKGLARSAQGEAEIETEETEMLTPGMDNERKRIKSLLPKLSCGVKRNTHTRRKRVIGGKPANVGDYPWQVAIKDGQRITCGGIYIGGCWILTAAHCVRPSRAHSYQVWTALLDWLKPNSQLGIQTVKRVIVHEKYNGATFQNDIALIEMKMHTGKKECELPNSVPACVPWSPYLFQPNDRCIISGWGRGKDNQKVYSLRWGEVDLIGNCSQFYPDRYYEKEMQCAGTRDGSIDACKGDSGGPLVCEDINNVTYVWGIVSWGENCGKPEFPGVYTRVANYFDWISYHVGRSLVSQHNV
B1: in series [1], the “C3b/iC3b deposition on LPS-coated plate, reduction, serum of AAV high FI group” value is recorded as “by 50% in the AAV % high FI group”; the “C3b/iC3b deposition on LPS-coated plate, reduction, serum of AAV_low FI group” value is given as “reduced by 11% in the AAV_low FI”; the “C3b/iC3b deposition on LPS-coated plate, reduction, serum of AAV_medium FI group” value is given as “by 38% in the AAV_medium FI”. Besides, the “in vitro C3b and iC3b cleavage assay (western blot with clone 9, generation of C3dg; human Factor H as cofactor, 30 minutes)” value with human C3b, P01024 was “more efficiently cleaved to C3dg within the incubation period in the AAV_FI medium and AAV_FI high group”.

The values are drawn from patent publication US20240238446.
